According to the supplement of paper PMC9170038:

Tested on: MS2 coat protein
Assay: apparent KD of MS2 coat protein; designed switch direction (-1 OFF switch, 1 ON switch): 1; higher = weaker reporter binding
Procedure, shortened: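 Apparent KD, taken as the median over clusters for each design, was obtained by curve-fitting normalised cluster fluorescence. Designed RNA switches had been transcribed on Illumina chips by stalled E. coli RNA polymerase and titrated with SNAP-549-labelled MS2 coat protein, doubling from 0.7 or 1.5 nM to 3 µM.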

[1] = input ligand: microRNA oligo, concentration not stated
[2] = Eterna round: R95, input ligand: FMN 200 uM
[3] = Eterna round: R95, input ligand: microRNA oligo, concentration not stated
[4] = Eterna round: R95, input ligand: none

| Sequence | apparent KD of MS2 coat protein (input ligand: FMN 200 uM) | apparent KD of MS2 coat protein [1] | apparent KD of MS2 coat protein (input ligand: none) | apparent KD of MS2 coat protein [2] | apparent KD of MS2 coat protein [3] | apparent KD of MS2 coat protein [4] |
| --- | --- | --- | --- | --- | --- | --- |
| AGCCGAGACUGAGGAUAUUUUAAUCUACAUGAGGAUCACCCAUGUAACAACACGUGGUAGUGAUAGAAGAAGGCGGCUCGGCGC [Omei SS(NG)2 Cv1] (Eterna round: R96, puzzle: Same State NG 2) | 176 nM | 162 nM | 386 nM |  |  |  |
| AGCGUCCACACAGGAUAUCACCUGCACUACAGGUGAGAAGGGUGACCGGUGCGCAAUAACGACAUGAGGAUCACCCAUGUAAAA [Enraquleer] (Eterna round: R96, puzzle: Same State NG 1) | 334 nM | 93.2 nM | 384 nM |  |  |  |
| AGCUAGUACCGAGGAUAUACGUACAUGAGGAUCACCCAUGUAUACAUGGUUUAAUGAAACUACAUGUAGAAGGCGGUACUAGCA [Mat - Same State NG 2 - JL mod - D51] (Eterna round: R96, puzzle: Same State NG 2) | 23.2 nM | 157 nM | 348 nM |  |  |  |
| AGCUAUCGAAAACGAUAGCAAAAGUAUGUACAUGAGGAUCACCCAUGUCAUGUACAAGCUUUUUGCUCGUCUUAAAA [Zipper 23 - 10] (puzzle: Sensor for hsa-mir-208a) |  |  |  | 664 nM | 19.6 nM | 638 nM |
| AGCUAUCGCGUACGAUAGCUGAAGCAUGUACAUGAGGAUCACCCAUGUCAUGUACAAGCUUUUUGCUCGUCUUAUUG [JL-shm-2.26 JL mod] (puzzle: Sensor for hsa-mir-208a) |  |  |  | 341 nM | 14.2 nM | 347 nM |
| AGCUAUUAAUCAGGAUAUGGUCACAUGAGGAUCACCCAUGUAUAGAUGAUAAAAUGUGGUCAAUACUAGAAGGGAUUGCUAACA [SameState NG2 #63] (Eterna round: R96, puzzle: Same State NG 2) | 433 nM | 266 nM | 386 nM |  |  |  |
| AGCUAUUAAUCAGGAUAUGGUCACAUGAGGAUCACCCAUGUAUAGAUGAUUAAAUGUGGUCUAAACUAGAAGGGAUUGCUAACA [SameState NG2 #56] (Eterna round: R96, puzzle: Same State NG 2) | 414 nM | 523 nM | 421 nM |  |  |  |
| AGCUUGUGGGUAGGAUAUUUAGGAUAUGCGGAAGACUAAGUCUGUAGGUCACCUAACGCAGAAGGAGAGAAGGACCCUUCAGCA [pwkr ssNG2 2FMN + F9.30] (Eterna round: R96, puzzle: Same State NG 2) | 353 nM | 21.1 nM | 91.3 nM |  |  |  |
| AGGAAGGAGGCUGAGGAUAUCGUAAGGAGGACAUGAGGAUCACCCAUGUGUAUAGGAUUGGAGGACGAGAAGGCAGAGGAGUGGG [JR_SS2_Sub049] (puzzle: Same State 2) |  |  |  | 49.8 nM | 25 nM | 29.4 nM |
| AGGGAGGAUGCAGGAUAUAUAAGACAUGAGGAUCACCCAUGUACCUCGUGGAGAAGAAAGGAGAGAUAGAAGGGUAGAGAGGAA [Default title] (Eterna round: R96, puzzle: Same State NG 2) | 314 nM | 288 nM | 255 nM |  |  |  |
| AGUAAGAGUCAAGGAUAUGCUACCGUUUCGGUAGCAGAAGGUGAUCACAUGAGGAUCACCCAUGUAUAAAUGCGUGAGCGUGCU [JL SSNG1 3.63] (Eterna round: R96, puzzle: Same State NG 1) | 679 nM | 28.2 nM | 59 nM |  |  |  |
| AGUAGUGUAACAUGAGGAUCACCCAUGUAAGUAGAUGUAACCUAGGAUAUGGAUGAUAUGUUAGUCCAGAAGGAGGAUUGAAUA [JR_SSNG3_Sub037] (Eterna round: R96, puzzle: Same State NG 3) | 15.5 nM | 20.6 nM | 44.4 nM |  |  |  |
| AGUCCAGCAUGAGCUGGACAAAAGCAUGUACAUGAGGAUCACCCAUGUUCAUGUACAAGCUUUUUGCUCGUCAAAAG [Mat - hsa-mir-208a - Mod of JL - 70] (puzzle: Sensor for hsa-mir-208a) |  |  |  | 225 nM | 19.6 nM | 320 nM |
| AGUCCAGCCUGAGCUGGACAAAAGCAUGUACAUGAGGAUCACCCAUGUCAUGUACAAGCUUUUUGCUCGUCUUGAUA [Zipper 49 - 8] (puzzle: Sensor for hsa-mir-208a) |  |  |  | 416 nM | 16.7 nM | 435 nM |
| AGUCCAGCCUGAGCUGGACAAAAGCAUGUACAUGAGGAUCACCCAUGUCAUGUACAAGUUUUUUGCUCGUCUUAAAA [Zipper 46 - 11] (puzzle: Sensor for hsa-mir-208a) |  |  |  | 37.7 nM | 13 nM | 40.6 nM |
| AGUCCAGCCUGAGCUGGACAAAAGCAUGUACAUGAGGAUCACCCAUGUUCAUGUACAAGCUUUUUGCUCGUCUUAGU [salish99_208a_r3_061] (puzzle: Sensor for hsa-mir-208a) |  |  |  | 481 nM | 15.1 nM | 528 nM |
| AGUCCAGCCUGAGCUGGACAAAAGCAUGUACAUGAGGAUCACCCAUGUUCAUGUACAGGCUUUUUGCUCGUCUUAAA [Zipper 52 - 7] (puzzle: Sensor for hsa-mir-208a) |  |  |  | 331 nM | 17.8 nM | 488 nM |
| AGUCCAGCCUGAGCUGGACAAAUGCUUGUACAUGAGGAUCACCCAUGUAUGUACAAGCUUUUUGCUCGUCUUAAUAA [JL zipper 68] (Eterna round: R96, puzzle: Sensor for hsa-mir-208a) | 263 nM | 18.2 nM | 223 nM |  |  |  |
| AGUCCAGCCUGAGCUGGACUGAAGCAUGUACAUGAGGAUCACCCAUGUUCAUGUGCAAGCUUUUUGCUCGUCUUAUG [JL-shm-2.03 JL mod] (puzzle: Sensor for hsa-mir-208a) |  |  |  | 42 nM | 11.5 nM | 41.8 nM |
| AGUCCAGCGAAAGCUGGACAAAAGCAUGUACAUGAGGAUCACCCAUGUUCAUGUGCAAGCUUUUUGCUCGUCUUAAA [JL mod - D95 - 4] (puzzle: Sensor for hsa-mir-208a) |  |  |  | 49.2 nM | 9.36 nM | 58.9 nM |
| AGUCCAGCGAAAGCUGGACAAAGACAUGUACAUGAGGAUCACCCAUGUCAUGUACAAGUUUUUUGCUCGUCUUAUAA (puzzle: Sensor for hsa-mir-208a) |  |  |  | 34.4 nM | 12.7 nM | 35.8 nM |
| AGUCCUGAAAAGAAAAUAAUAAGUGAUGUACAUGAGGAUCACCCAUGUCAUGUACAAGUUCUAUGCUCGUCAUAUAA [Sensorship 24 - Jieux - Sensor for hsa-mir-208a] (puzzle: Sensor for hsa-mir-208a) |  |  |  | 106 nM | 32.2 nM | 98.1 nM |
| AUAAAACAUGAGGAUCACCCAUGUCAACAAAGUCGAGGAUAUGGGCAAAUAAAAUAAGAACCAGAAGGCGAUUAAU [salish99_ss1_r3_035] (puzzle: Same State 1) |  |  |  | 23.4 nM | 97.3 nM | 99 nM |
| AUAAGGCAAGCUUUUUUCUCGUAGUGUAAACAUGAGGAUCACCCAUGUGCCCACCCUGGACCUUUGGAUCGCAGAAA [Geatxe] (puzzle: Sensor for hsa-mir-208a) |  |  |  | 30.5 nM | 25.9 nM | 25.9 nM |
| AUAAGUUCGAUGCUCGUCUCUCCGUACAAACAUGAGGAUCACCCAUGUGAUUAGGCAGUAGCCCAAUCAGUAUGGCC [Ariusveri] (puzzle: Sensor for hsa-mir-208a) |  |  |  | 38.7 nM | 21.8 nM | 43.4 nM |
| AUAAGUUUGAUGCUCGUCUCUCCGUACAGACAUGAGGAUCACCCAUGUAGUCGGGAAGUAGCCCGGCCUGUAUGGCC [Magequ] (puzzle: Sensor for hsa-mir-208a) |  |  |  | 15.2 nM | 15.7 nM | 14.4 nM |
| AUAAGUUUGAUGCUCGUCUCUCCGUACGGACAUGAGGAUCACCCAUGUAGUCGGGAAGUAGCCCGGCCAGUAUGGCC [Soveerre] (puzzle: Sensor for hsa-mir-208a) |  |  |  | 32.6 nM | 22.3 nM | 22.9 nM |
| AUACAUGAGGAUCACCCAUGUAAUUAAUUAACUUGUAAGAUCAAGGAUAUCAGCUCGAUUAGAGCUGAGAAGGUGAUCACAUGU [SSNG3/21-C2] (Eterna round: R96, puzzle: Same State NG 3) |  | 116 nM |  |  |  |  |
